Columns and labels:
[1] = target: TRPA1 (expressed in heterologous cells: CHO, HEK293T); assay: cell-based or functional assay
[2] = target: TRPV1 (expressed in heterologous cells: CHO, HEK293T); assay: cell-based or functional assay
[3] = test system: T1, TRPA1; assay: MO-gated whole-cell voltage clamp in CHO cells expressing TRPA1+TRPV1; format: cell-based; conditions: Vh=-60 mV; TRPA1+TRPV1+Tmem100-3Q (1:1:4) CHO cells
T1 construct: MO (10 μM)-evoked Ca2+ influx; other: TRPA1+TRPV1+Tmem100-3Q (1:1:4) CHO cells; MO (10 μM)-gated whole-cell current density; other: Vh=-60 mV; TRPA1+TRPV1+Tmem100-3Q (1:1:4) CHO cells; MO (10 μM)-induced single-channel activity (NPo); co-expressed with TRPA1+TRPV1 (1:1:4) in CHO cells
Method: Recordings were made in cell-attached single-channel or whole-cell voltage clamp configurations at 22-24° C. from the somata of small-to-medium mouse DRG neurons (15-35 pF) or CHO cells. For whole-cell configuration, holding potential (Vh) is −60 mV. Data were acquired and analyzed using an Axopatch 200B amplifier and pCLAMP9.0 software (Molecular Devices, Sunnyvale, Calif.). Borosilicate pipettes (Sutter, Novato, Calif.) were pulled and polished to resistances of 3-5 MΩ (in whole-cell and single-channel pipette solutions). Access resistance (Rs) was compensated (40-80%) when appropriate up to the value 7-10 MΩ for whole-cell configuration. Whole-cell recording data were filtered at 0.5 kHz and sampled at 2 kHz. Single-channels currents were filtered with an 8-pole, low pass Bessel filter at 0.1 kHz and sampled at 0.5 kHz, since dwelling time (τ) of the TRPA1 and TRPV1 single-currents were >0.5 sec. Whole-cell recorded data were rejected when Rs changed >20% during recording, leak currents were >100 pA, or input resistance was <200 MΩ.
Standard external solution (SES) for whole-cell patch recording contained (in mM): 140 NaCl, 5 KCl, 2 CaCl2, 1 MgCl2, 10 D-glucose and 10 HEPES, pH 7.4. Vehicle, which is 0.01% DMSO, was added to external solutions. […] The baseline activities of the cells were recorded for 1-2 min prior drug applications. […]

[4] = test system: T1, TRPA1; assay: MO-evoked Ca2+ influx into CHO cells expressing TRPA1+TRPV1; format: cell-based; conditions: TRPA1+TRPV1+Tmem100-3Q (1:1:4) CHO cells
Method: Calcium imaging assays were performed as previously described (Liu et al., 2009). Cells were loaded with 2 μM fura 2-acetomethoxy ester (Molecular Probes) for 30 min in the dark at room temperature or for 45 minutes at 37° C. for DRG and cell lines, respectively. After washing, cells were imaged at 340 and 380 nm excitation to detect intracellular free calcium under a fluorescent microscope (Nikon Eclipse TE2000-S) and Lambda 10B shutter (Sutter Instrument). The cells were bathed in calcium imaging buffer (pH 7.45, 130 mM NaCl, 3 mM KCl, 2.5 mM CaCl2, 10 mM HEPES, 10 mM glucose, 1.2 mM NaHCO3, with sucrose to increase osmolarity to 290 mOsm). The reagents and buffers were applied through a gravity perfusion system at a rate of […], including mustard oil (Sigma 377430), cinnamaldehyde (Sigma C80687), menthol (Sigma M2780), and capsaicin (Sigma M2028). Cells with high baseline 340/380 values (>1.5) were excluded for analysis. For DRG neurons, IB4 staining was performed in the chamber with the dilution of 1:200 (Molecular Probes 121412) for 160 seconds before washing off at the end of each test. Images were processed and analyzed with NIS-Elements BR 2.30 software (Nikon). A responsive cell was defined as one that with greater than a 20% increase in the 340/380 ratio above the baseline. […] The data was analyzed with the experimenter blinded to the genotypes or constructs transfected.

Sequence of TRPA1 (expressed in heterologous cells: CHO, HEK293T) (O75762 whole entry): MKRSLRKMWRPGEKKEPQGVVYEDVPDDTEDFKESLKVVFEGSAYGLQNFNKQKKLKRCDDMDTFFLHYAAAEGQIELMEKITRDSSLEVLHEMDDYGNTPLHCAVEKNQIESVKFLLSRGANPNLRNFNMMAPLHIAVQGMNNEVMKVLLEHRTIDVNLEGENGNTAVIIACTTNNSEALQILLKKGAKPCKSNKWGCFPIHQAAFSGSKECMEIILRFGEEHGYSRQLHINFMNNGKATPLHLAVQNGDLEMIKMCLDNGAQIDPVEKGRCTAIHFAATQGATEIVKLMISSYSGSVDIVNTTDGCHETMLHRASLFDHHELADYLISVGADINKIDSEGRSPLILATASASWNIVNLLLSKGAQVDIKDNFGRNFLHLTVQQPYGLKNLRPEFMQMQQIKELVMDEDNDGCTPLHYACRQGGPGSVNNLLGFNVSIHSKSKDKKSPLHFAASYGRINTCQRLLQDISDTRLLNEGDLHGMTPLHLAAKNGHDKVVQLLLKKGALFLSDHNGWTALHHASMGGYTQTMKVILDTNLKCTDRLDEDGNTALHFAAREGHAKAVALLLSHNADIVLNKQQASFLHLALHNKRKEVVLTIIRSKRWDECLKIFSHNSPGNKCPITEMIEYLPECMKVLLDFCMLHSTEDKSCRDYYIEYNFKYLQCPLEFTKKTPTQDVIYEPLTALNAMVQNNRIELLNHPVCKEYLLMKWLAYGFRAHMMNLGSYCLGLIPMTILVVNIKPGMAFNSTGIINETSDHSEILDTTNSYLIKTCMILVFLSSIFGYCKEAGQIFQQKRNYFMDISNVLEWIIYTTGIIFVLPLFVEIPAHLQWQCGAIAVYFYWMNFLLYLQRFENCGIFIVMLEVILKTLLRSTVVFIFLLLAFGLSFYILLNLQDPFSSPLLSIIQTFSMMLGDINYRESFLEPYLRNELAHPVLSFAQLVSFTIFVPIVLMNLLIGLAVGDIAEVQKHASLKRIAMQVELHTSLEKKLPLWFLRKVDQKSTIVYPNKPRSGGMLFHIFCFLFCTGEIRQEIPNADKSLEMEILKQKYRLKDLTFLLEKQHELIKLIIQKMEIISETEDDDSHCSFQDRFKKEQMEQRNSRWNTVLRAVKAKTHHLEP

MO (10 µM)-induced single-channel activity (NPo), CHO cells [1]: 1.05 | CAP (100 nM)-induced single-channel activity (NPo), CHO cells [2]: 0.73
B1: Tmem100-3Q mutant (full-length, mouse) (protein)
chain: MTEESTKENLGAPKSPTPVTMEKNPKREVVVTTGPLVSEVQLMAATGGAELSCYRCIIPFAVVVFITGIVVTAVAYSFNSHGSIISIFGLVLLSSGLFLLASSALCWKVRQRNKKVQQQESQTALVVNQRCLFA
MO (10 μM)-gated whole-cell current density [3]: 39.16±12.5 pA/pF | MO (10 μM)-evoked Ca2+ influx [4]: 321 ± 18.2 nM

Reference: patent US11066455B2, “Tmem100 peptides and variants thereof and their use in treating or preventing diseases or conditions” (The Johns Hopkins University, priority 2014, dated 2021)
